Experimental data as given in patent US20090163594A1, “Triple Assay System for Identifying Substrate Selectivity of Gamma Secretase Inhibitors” (ELAN PHARMACEUTICALS, INC., priority 2007, published 2009).
Values belong to the molecule of their own block, whether it stands above or below them.

Legend:
[1] = system: AICD-GVP nuclear staining in COS-7 cells; test: Immunostaining of transfected COS-7 cells; type: cell-based; settings: DAPT 5 μM, FIG. 5F
Procedure: Immunostaining: Wild type or transiently transfected COS-7 cells (ATCC) were fixed at room temperature with 2% paraformaldehyde in PBS for 20 min and subsequently permeabilized with 0.2% Triton X-100 in PBS for 10 min. […] All staining was visualized on a Bio-Rad MRC 1024ES confocal microscope (Bio-Rad) and captured with a coupled CCD camera.

[2] = target: T1, gamma secretase, AICD-GVP generated from C99-GVP (Homo sapiens, UniProt P49768); test: Luciferase reporter gene assay, HEK293 cells transfected with C99GVP; type: cell-based; settings: dose-dependent, FIG. 5C
T1 construct: endogenous in cells
Procedure: Inhibitor Treatment of Transfected HEK Cell: The transition state analogue gamma secretase inhibitor-L685,458 (Sigma) and the peptidomimetic inhibitor-DAPT (Dovey, H. F., et al., J Neurochem., 2001; 76:173-181) were dissolved in DMSO to make 20 mM stocks. Similarly, a number of Elan's series of sulfonamide inhibitors were prepared and used as described herein (see, also FIGS. 11-14). Inhibitors were added to cell cultures (e.g., HEK) at the indicated final concentration, and the treated cells were harvested 48 h post-transfection. The metallo-proteinase inhibitor TAPI-1 (Calbiochem) was used at a final concentration of 40 μM. The Aβ-degrading enzyme inhibitors, Bacitracin (Calbiochem) and phosphoramidon (Calbiochem) were used at final concentration of 1 mg/ml and 40 μM, respectively. […]
Luciferase Reporter Gene Assay: Luciferase reporter assays were carried out 48 hr post-transfection. […] After adding 100 μl of luminescent substrate (Promega), the luciferase activity was measured with a MicroLumatPlus microplate luminometer (Berthold Technologies). The P-galactosidase activity was measured similarly, using a luminescent β-galactosidase substrate (BD Biosciences). […]
Luciferase Assay. […] Some residual luciferase activity remained in the presence of excess gamma secretase inhibitors, even though identical treatment completely abolished AICD production as measured by Western blot (FIG. 5B).

[3] = target: T2, gamma secretase, gamma cleavage (secreted Aβ) (Homo sapiens, UniProt P49768); test: Aβ ELISA and IP/Western blot of conditioned media, HEK cells transfected with C99GVP constructs; type: cell-based; design: secreted Aβ42: unit not given here; settings: for secreted Aβ (Ab40, Ab42, total): 5 μM, 24 h, C99GVP transfectants, FIG. 5D; for Aβ-lowering potency with C99GVP compared with native substrate APP: FIG. 5E; for effect on secreted Aβ / Aβ production: words; for drop of Aβ40: Aβ40 ELISA, FIG. 9C; for reduction in total Aβ: IP/Western blot, FIG. 9B
T2 construct: endogenous in cells; host or cells: HEK 293, transiently transfected with substrate plasmids
Procedure: AICD neo-epitope antibodies were raised against the peptide VMLKKKC (SEQ ID NO:39). […] (FIGS. 15 and 16). P Cell Culture and Transient Transfection: Human embryonic kidney 293 (HEK 293) cells (ATCC) were grown in Dulbecco's Modified Eagle Medium with High Glucose (DMEM, obtained from Gibco/Invitrogen, Cat #11960) supplemented with 10% fetal bovine serum (Hyclone, SV 30014.03) and 50 units/ml penicillin and streptomycin (37° C., 5% CO2). Cells were used at less than passage number 30. At the time of seeding, viability of cells was greater than 95% as determined using a Vi-Cell Analyzer (Beckman-Coulter). Confluence of cells on plates was kept at greater than 95% during all phases of the experiment as determined with a standard tissue culture inverted microscope. All transfections were carried out on 5×10^6 cells in 6-well tissue culture plates (Costar). […] FuGENE6 reagent (Roche Cat. #11-814443001) was used according to manufacturer's protocol for the transient transfection of adherent cells. Transfected cells were reseeded onto 12 well (2×10^6 cells) and/or 96-well (5×10^4 cells) plates (Costar) 16 h post-transfection; fresh media was added either with or without gamma secretase inhibitors. The cells and conditioned media were harvested 48 h post-transfection for analysis.
Inhibitor Treatment of Transfected HEK Cell: The transition state analogue gamma secretase inhibitor-L685,458 (Sigma) and the peptidomimetic inhibitor-DAPT (Dovey, H. F., et al., J Neurochem., 2001; 76:173-181) were dissolved in DMSO to make 20 mM stocks. Similarly, a number of Elan's series of sulfonamide inhibitors were prepared and used as described herein (see, also FIGS. 11-14). Inhibitors were added to cell cultures (e.g., HEK) at the indicated final concentration, and the treated cells were harvested 48 h post-transfection. The metallo-proteinase inhibitor TAPI-1 (Calbiochem) was used at a final concentration of 40 μM. The Aβ-degrading enzyme inhibitors, Bacitracin (Calbiochem) and phosphoramidon (Calbiochem) were used at final concentration of 1 mg/ml and 40 μM, respectively. All inhibitor experiments were performed in triplicate and repeated at least three times.
Immunoprecipitation (IP) and Western Blot Detection of Aβ: Total Aβ peptides in conditioned medium or cell lysate were immuno-precipitated at 4° C. overnight with 4 μg of the 2H3 antibody, followed by incubation with 50 μl of a 50% protein G-Sepharose (GE Healthcare) slurry for 1 hr and three washes in the same lysis buffer as described above in the Western Blot discussion. Proteins were eluted from the solid-phase immunoprecipitates in Laemmli sample buffer by heating at 70° C. for 5 min and resolved on 10-20% Tris-Tricine SDS-PAGE or the modified Tris-Tricine/8M urea gels (Qi-Takahara, Y., et al., J Neurosci. (2005; 25, 436-445). After transferring onto nitrocellulose membranes (Invitrogen), the membranes were heated to 98° C. for 5 min in PBS, immunostained with the 2H3 antibody and visualized with Super-signal West Pico chemiluminescent substrate (Pierce). Each experiment was repeated at least three times.
(§1) ELISAs used to quantify different Aβ species were performed using standard techniques as described above and in (Johnson-Wood, K., et al., Proc. Natl. Acad. Sci. U.S.A., 1997; 94: 1550-1555, incorporated by reference). The Aβ40 and Aβ42 peptides in the samples were captured onto 2G3 or 21F12 antibody coated plates, respectively, and detected with a biotinylated 2H3 antibody. The fluorescence signal generated from a streptavidin-alkaline phosphatase conjugate (Roche) was measured with a CytoFlour microplate reader (Applied Biosystems). Synthetic Aβ40 or Aβ42 peptides (Anaspec) were used to generate standard curves (FIG. 10). All measurements were done in triplicate.

[4] = target: T3, gamma secretase, APP γ and ε cleavage (Homo sapiens, UniProt P49768); test: Aβ and AICD ELISA, Fas-APPsw-DD transfected 293 cells; type: cell-based
T3 construct: endogenous in cells; host or cells: 293 cells transfected with Fas-APPsw-DD
Procedure: as §1
An AICD sandwich ELISA was established based on capture of cell lysates with any of the AICD polyclonal or monoclonal antibodies discussed above, and reporting back with antibody directed at the extreme C-terminus of APP (e.g., 13G8, prepared in-house). Alternatively, luciferase-based reporter assays can be used to detect and quantify the presence of AICD and correlate those numbers to inhibitory potency of known or potential gamma secretase inhibitor compounds.
Polyclonal antibody AICD ELISA. HEK 293 cells were grown under standard conditions to ˜90% confluence. Cells were harvested, counted, and subsequently plated onto PDL-coated 60 mm dishes at 2×10^6 cells/dish in 5 mL media. […]

[5] = transient expression in HEK cells, ELISA

Molecule: C[C@H](NC(=O)Cc1cc(F)cc(F)c1)C(=O)N[C@H](C(=O)OC(C)(C)C)c1ccccc1 [DAPT]
nuclear staining of AICD-GVP [1]: abolished
luciferase reporter transactivation by AICD-GVP [2]: block luciferase reporter transactivation
secreted Aβ (Ab40, Ab42, total) [3]: block secreted Aβ
Aβ-lowering potency with C99GVP compared with native substrate APP ([3]; ELISA): equal Ab potency
γ/ε selectivity = IC50 AICD/IC50 Aβ [4]: 0.7

Molecule: CC(C)C[C@H](NC(=O)[C@H](Cc1ccccc1)C[C@@H](O)[C@H](Cc1ccccc1)NC(=O)OC(C)(C)C)C(=O)N[C@@H](Cc1ccccc1)C(N)=O [L-685,458, reference compound]
luciferase reporter transactivation by AICD-GVP [2]: block luciferase reporter transactivation
secreted Aβ (Ab40, Ab42, total) [3]: block secreted Aβ
Aβ-lowering potency with C99GVP compared with native substrate APP ([3]; ELISA): equal Ab potency
γ/ε selectivity = IC50 AICD/IC50 Aβ [4]: 1.9

Molecule: G25S: C99GVP point mutant in the GSNK motif (SEQ ID NO:43) (LEDAEFRHDSGYEVHHQKLVFFAEDVSSNKGAIIGLMVGGVVIATVIVITLVML)
effect on secreted Aβ / Aβ production ([3]; versus C99GVP control): no obvious effect

Molecule: S26L: C99GVP point mutant in the GSNK motif (SEQ ID NO:44) (LEDAEFRHDSGYEVHHQKLVFFAEDVGLNKGAIIGLMVGGVVIATVIVITLVML)
drop of Aβ40 ([3]; versus C99GVP control): 52.7±2.3%
reduction in total Aβ ([3]; versus C99GVP control): 65.7±8.5%

Molecule: gamma secretase
decrease in total Aβ and in Aβ40 (C99GVP-K28S): an even more substantial (˜90%) decrease in both measurements
secreted Aβ (C99GVP-G25S): showed no obvious effect on secreted Aβ
drop of Aβ40 (C99GVP-S26L): 52.7±2.3% drop of Aβ40
reduction in total Aβ (C99GVP-S26L): 65.7±8.5% reduction in total Aβ
secreted Aβ (C99GVP-N27S): showed no obvious effect on secreted Aβ
reduction in secreted Aβ (C99GVP-SLSS): marked reduction (˜97%) in secreted Aβ
Aβ secretion (western blot and Aβ40 ELISA of conditioned media) (C99GVP-SREBP1-gsnk): also maintained normal Aβ secretion

B1: C99GVP-SLSS: C99GVP in which the GSNK motif is substituted with SLSS from APLP2 (SEQ ID NO:51) (protein)
chain: DAEFRHDSGYEVHHQKLVFFAEDVSLSSGAIIGLMVGGVVIATVIVITLVMLKKKKLLSSIEQACDICRLKKLKCSKEKPKCAKCLKNNWECRYSPKTKRSPLTRAHLTEVESRLERLEQLFLLIFPREDLDMILKMDSLQDIKALLTGLFVQDNVNKDAVTDRLASVETDMPLTLRQHRISATSSSEESSNKGQRQLTVSGIPGDLAPPTDVSLGDELHLDGEDVAMAHADALDDFDLDMLGDGDSPGPGFTPHDSAPYGALDMADFEFEQMFTDALGIDEYGGQYTSIHHGVVEVDAAVTPEERHLSKMQQNGYENPTYKFFEQMQN
reduction in secreted Aβ ([3]; versus C99GVP control, FIG. 9B and 9C): ~97%

Next, values leading:

Aβ42 fraction of the total Aβ ([3]; transient expression in HEK cells): 15.7±2.5%
secreted Aβ40 [3, 5]: 210.8 ± 19.2 pM
secreted Aβ42 [3, 5]: 39.1±6.4
Molecule: C99GVP: 99 amino acid C-terminal fragment of APP with Gal4-VP16 domain inserted (SEQ ID NO:47)

drop of Aβ40 ([3]; versus C99GVP control): ~90%
reduction in total Aβ ([3]; versus C99GVP control): ~90%
Molecule: K28S: C99GVP point mutant in the GSNK motif (SEQ ID NO:46) (LEDAEFRHDSGYEVHHQKLVFFAEDVGSNSGAIIGLMVGGVVIATVIVITLVML)

effect on secreted Aβ / Aβ production ([3]; versus C99GVP control): no obvious effect
Molecule: N27S: C99GVP point mutant in the GSNK motif (SEQ ID NO:45) (LEDAEFRHDSGYEVHHQKLVFFAEDVGSSKGAIIGLMVGGVVIATVIVITLVML)
